From the DeepSol protein solubility set come the findings set out here.

The nature of this data set: soluble on expression in E. coli; label from the status in PepcDB or PDB records.
Regarding “MSSRKGKASAHISYEDENDDLIDEINTFHNKDRKVEKGAIHKRKTFNRPEEVLNVEAEASDSSEDDGSDFDDDDVNDITDNKWGKKRKDFYGTGFVDKDWGGMREEEMEDAQLEEEDALTRQKQIDKSTAAIADLFDDDDEDEEEKEETVEVETVLEFNEENARTKNKKIVKTLEQFEARKRIFDLVVKPLENVIKQIPKCALRSQLVYVAQTYASYLMNTAFLLNLRAKQFSNEKLDDPLVDIHPVVESLKRLEKKITECEDFLHSNSDHLDELKKWAESEPENMEELISKVGDVQLTKKNFGAIMNNNLSTITSSDNTSIHPHFTPMDADEKRKASDKVAKNREYAERRGKKKAKTSKTKNRRKVHAIEKRVKSQIGNVRREMQKYSGETSGIRASTIKSTKLIA”, the “soluble on expression in E. coli” value is “not soluble”.

As to “MSLDLNKYKDRIITLAKPYLNREFDFADVKLTLISGLGVEINGLRIADNPEFGSEDFLSLQSLRIKVALFPLLKKKIQIKKLIMDEPVVRLVRNSNGVFNFSDMASDAEEDEKPQAKDEKRKEKKSGSEKKPDSEHNIFLAGLMVSQFTLHSGQIHFLDNFVPDAPVTMVFDSLNIELKNVSLYKPIRIYASAGLQGTTEQNLLIKGMVGPVGDNMDLVGLAMDIHVSVQNVFLHKFVPYIPDGLMLSPLEGILYMTANIKGSVHSGLDLESVIQGEKLVMSIKDSDEKIQNVNITLKEKIKYDDRKGDIGFQQLDLALNDNNVSLTGTIENIKTDPQWDVTLMAKMNALDEALALYPVFKEALPQDFRFTGPLNMEITSSGSKDAMQISGHTDMTRAEILYGEVFKKQKNIPFQISLKANKIADIIQLEAFAVNLQNASLNSSGSIEDMVNPRFDLVSTANEFSLKGWDAIVPLLKEYEPEGSVSIKNYMKGNFDDAFVNLHVSSPKLLFKFPASSDKKEDENTKQRKDVAESIRFELLAKKLADNITADGGLEMGNGTILDINFEEAKGKYSFQDDILKIQSFQMRTFEGDISLTGNYDSKSMQWDASPIINAVRIDGVVDAFTQYRGMMKGVFSGSFDMGGSLGKNDKMVTNANGSFRLLQGEIENVNLMETIIDSLLGIKEVYKYAGEKKDVLEKYDVTRFDSLDGEFSLLNDMLDLKKCYLENIYTPDVPGSDAKLKGDINFDTGKLDLSGKVILSSEHSEKLTKKAKPLKALLNEKGNIVLPVTVTGTMSNPKPLLDTSYVLNAMMNYYGKEELEKGLDKLKGKLGLEKLGLEKLWQKDEGHHHHHH”, the “soluble on expression in E. coli” value is recorded as “not soluble”.

With “MAHHHHHHMAHVITRINAREILDSRGNPTVEVDLETNLGIFRAAVPSGASTGIYEALELRDNDKSRYLGKGVQKAIKNINEIIAPKLIGMNCTEQKKIDNLMVEELDGSKNEWGWSKSKLGANAILAISMAVCRAGAAANKVSLYKYLAQLAGKKSDQMVLPVPCLNVINGGSHAGNKLSFQEFMIVPVGAPSFKEALRYGAEVYHTLKSEIKKKYGIDATNVGDEGGFAPNILNANEALDLLVTAIKSAGYEGKVKIAMDVAASEFYNSENKTYDLDFKTPNNDKSLVKTGAQLVDLYIDLVKKYPIVSIEDPFDQDDWENYAKLTAAIGKDVQIVGDDLLVTNPTRITKALEKNACNALLLKVNQIGSITEAIEACLLSQKNNWGVMVSHRSGETEDVFIADLVVALRTGQIKTGAPCRSERNAKYNQLLRIEESLGNNAVFAGEKFRLQLN”, the “soluble on expression in E. coli” value is “not soluble”.
